# Experimental data: paper PMC6172466 (EMBO Reports, 2018)
# Tests used:
# ubiquitin (untagged) = target: T1, ubiquitin (untagged) (UniProt P0CG48 1-76); test: ITC; 30 μM DUBm in the cell, 0.3 mM K48-linked diubiquitin or monoubiquitin injected; 25°C; 20 mM HEPES pH 7, 150 mM NaCl, 5 nM ZnCl2, 0.5 mM TCEP; one-site binding model; conditions: both partners purified
# T1 construct: ubiquitin, untagged (pET3a), free C-terminus at Gly76; also called monoubiquitin; free ubiquitin; source: E. coli Rosetta 2, purified (perchloric acid, HiTrap SP, HiLoad S75)
# [1] = target: T2, N-terminally TAMRA-labeled monoubiquitin (UniProt P0CG48 1-76, TAMRA on the N-terminus); test: fluorescence polarisation; equilibrium binding of USP4 to TAMRA-labelled ubiquitin species; as described in ref. 32; conditions: both partners purified
# T2 construct: ubiquitin with a free C-terminus; also called TAMRA-monoubiquitin; ubiquitin labeled with an N-terminal fluorophore
Binder,Kd (ubiquitin (untagged)),Kd [1]
"SAGA DUB module containing wild-type Ubp8 (complex, yeast, Ubp8, catalytic USP subunit of the yeast SAGA DUB module; Sgf11, subunit of the yeast SAGA DUB module (pCDFDuet-1 MCSI); Sus1, subunit of the yeast SAGA DUB module (pRSF-1); Sgf73 residues 1-96, subunit of the yeast SAGA DUB module (pCDFDuet-1 MCSII); Heterotetramer; also called DUBm-Ubp8^WT; wild-type DUBm; copies: + + +) chain 1: MSICPHIQQVFQNEKSKDGVLKTCNAARYILNHSVPKEKFLNTMKCGTCHEINSGATFMCLQCGFCGCWNHSHFLSHSKQIGHIFGINSNNGLLFCFKCEDYIGNIDLINDAILAKYWDDVCTKTMVPSMERRDGLSGLINMGSTCFMSSILQCLIHNPYFIRHSMSQIHSNNCKVRSPDKCFSCALDKIVHELYGALNTKQASSSSTSTNRQTGFIYLLTCAWKINQNLAGYSQQDAHEFWQFIINQIHQSYVLDLPNAKEVSRANNKQCECIVHTVFEGSLESSIVCPGCQNNSKTTIDPFLDLSLDIKDKKKLYECLDSFHKKEQLKDFNYHCGECNSTQDAIKQLGIHKLPSVLVLQLKRFEHLLNGSNRKLDDFIEFPTYLNMKNYCSTKEKDKHSENGKVPDIIYELIGIVSHKGTVNEGHYIAFCKISGGQWFKFNDSMVSSISQEEVLKEQAYLLFYTIRQVN chain 2: MTEETITIDSISNGILNNLLTTLIQDIVARETTQQQLLKTRYPDLRSYYFDPNGSLDINGLQKQQESSQYIHCENCGRDVSANRLAAHLQRCLSRGARR chain 3: MTMDTAQLKSQIQQYLVESGNYELISNELKARLLQEGWVDKVKDLTKSEMNINESTNFTQILSTVEPKALEMVSDSTRETVLKQIREFLEEIVDTQ chain 4: MRSGDAEIKGIKPKVIEEYSLSQGSGPSNDSWKSLMSSAKDTPLQYDHMNRESLKKYFNPNAQLIEDPLDKPIQYRVCEKCGKPLALTAIVDHLEN",13.9 µM,
"USP4 (8-925) C311A (enzyme, human, UniProt Q13107 8-925, looked up, human USP4, residues 8-925, active site cysteine C311 changed to alanine; also called USP4^C311A; USP4 C311A) RERPDAETQKSELGPLMRTTLQRGAQWYLIDSRWFKQWKKYVGFDSWDMYNVGEHNLFPGPIDNSGLFSDPESQTLKEHLIDELDYVLVPTEAWNKLLNWYGCVEGQQPIVRKVVEHGLFVKHCKVEVYLLELKLCENSDPTNVLSCHFSKADTIATIEKEMRKLFNIPAERETRLWNKYMSNTYEQLSKLDNTVQDAGLYQGQVLVIEPQNEDGTWPRQTLQSKSSTAPSRNFTTSPKSSASPYSSVSASLIANGDSTSTCGMHSSGVSRGGSGFSASYNCQEPPSSHIQPGLCGLGNLGNTAFMNSALQCLSNTAPLTDYFLKDEYEAEINRDNPLGMKGEIAEAYAELIKQMWSGRDAHVAPRMFKTQVGRFAPQFSGYQQQDSQELLAFLLDGLHEDLNRVKKKPYLELKDANGRPDAVVAKEAWENHRLRNDSVIVDTFHGLFKSTLVCPECAKVSVTFDPFCYLTLPLPLKKDRVMEVFLVPADPHCRPTQYRVTVPLMGAVSDLCEALSRLSGIAAENMVVADVYNHRFHKIFQMDEGLNHIMPRDDIFVYEVCSTSVDGSECVTLPVYFRERKSRPSSTSSASALYGQPLLLSVPKHKLTLESLYQAVCDRISRYVKQPLPDEFGSSPLEPGACNGSRNSCEGEDEEEMEHQEEGKEQLSETEGSGEDEPGNDPSETTQKKIKGQPCPKRLFTFSLVNSYGTADINSLAADGKLLKLNSRSTLAMDWDSETRRLYYDEQESEAYEKHVSMLQPQKKKKTTVALRDCIELFTTMETLGEHDPWYCPNCKKHQQATKKFDLWSLPKILVVHLKRFSYNRYWRDKLDTVVEFPIRGLNMSEFVCNLSARPYVYDLIAVSNHYGAMGVGHYTAYAKNKLNGKWYYFDDSNVSLASEDQIVTKAAYVLFYQRRDD",,0.0006 ± 0.00017 µM

# Continued, values first:
Kd (ubiquitin (untagged)),Kd [1],Binder
12.8 µM,,"SAGA DUB module containing Ubp8^C146S (complex, yeast, Ubp8, catalytic USP subunit of the yeast SAGA DUB module, active site cysteine changed; Sgf11, subunit of the yeast SAGA DUB module (pCDFDuet-1 MCSI); Sus1, subunit of the yeast SAGA DUB module (pRSF-1); Sgf73 residues 1-96, subunit of the yeast SAGA DUB module (pCDFDuet-1 MCSII); Heterotetramer; also called DUBm-Ubp8^C146S; copies: + + +) chain 1: MSICPHIQQVFQNEKSKDGVLKTCNAARYILNHSVPKEKFLNTMKCGTCHEINSGATFMCLQCGFCGCWNHSHFLSHSKQIGHIFGINSNNGLLFCFKCEDYIGNIDLINDAILAKYWDDVCTKTMVPSMERRDGLSGLINMGSTSFMSSILQCLIHNPYFIRHSMSQIHSNNCKVRSPDKCFSCALDKIVHELYGALNTKQASSSSTSTNRQTGFIYLLTCAWKINQNLAGYSQQDAHEFWQFIINQIHQSYVLDLPNAKEVSRANNKQCECIVHTVFEGSLESSIVCPGCQNNSKTTIDPFLDLSLDIKDKKKLYECLDSFHKKEQLKDFNYHCGECNSTQDAIKQLGIHKLPSVLVLQLKRFEHLLNGSNRKLDDFIEFPTYLNMKNYCSTKEKDKHSENGKVPDIIYELIGIVSHKGTVNEGHYIAFCKISGGQWFKFNDSMVSSISQEEVLKEQAYLLFYTIRQVN chain 2: MTEETITIDSISNGILNNLLTTLIQDIVARETTQQQLLKTRYPDLRSYYFDPNGSLDINGLQKQQESSQYIHCENCGRDVSANRLAAHLQRCLSRGARR chain 3: MTMDTAQLKSQIQQYLVESGNYELISNELKARLLQEGWVDKVKDLTKSEMNINESTNFTQILSTVEPKALEMVSDSTRETVLKQIREFLEEIVDTQ chain 4: MRSGDAEIKGIKPKVIEEYSLSQGSGPSNDSWKSLMSSAKDTPLQYDHMNRESLKKYFNPNAQLIEDPLDKPIQYRVCEKCGKPLALTAIVDHLEN"
0.43 µM,,"SAGA DUB module containing Ubp8^C146A (complex, yeast, Ubp8, catalytic USP subunit of the yeast SAGA DUB module, active site cysteine changed; Sgf11, subunit of the yeast SAGA DUB module (pCDFDuet-1 MCSI); Sus1, subunit of the yeast SAGA DUB module (pRSF-1); Sgf73 residues 1-96, subunit of the yeast SAGA DUB module (pCDFDuet-1 MCSII); Heterotetramer; also called DUBm-Ubp8^C146A; DUB module-Ubp8^C146A; copies: + + +) chain 1: MSICPHIQQVFQNEKSKDGVLKTCNAARYILNHSVPKEKFLNTMKCGTCHEINSGATFMCLQCGFCGCWNHSHFLSHSKQIGHIFGINSNNGLLFCFKCEDYIGNIDLINDAILAKYWDDVCTKTMVPSMERRDGLSGLINMGSTAFMSSILQCLIHNPYFIRHSMSQIHSNNCKVRSPDKCFSCALDKIVHELYGALNTKQASSSSTSTNRQTGFIYLLTCAWKINQNLAGYSQQDAHEFWQFIINQIHQSYVLDLPNAKEVSRANNKQCECIVHTVFEGSLESSIVCPGCQNNSKTTIDPFLDLSLDIKDKKKLYECLDSFHKKEQLKDFNYHCGECNSTQDAIKQLGIHKLPSVLVLQLKRFEHLLNGSNRKLDDFIEFPTYLNMKNYCSTKEKDKHSENGKVPDIIYELIGIVSHKGTVNEGHYIAFCKISGGQWFKFNDSMVSSISQEEVLKEQAYLLFYTIRQVN chain 2: MTEETITIDSISNGILNNLLTTLIQDIVARETTQQQLLKTRYPDLRSYYFDPNGSLDINGLQKQQESSQYIHCENCGRDVSANRLAAHLQRCLSRGARR chain 3: MTMDTAQLKSQIQQYLVESGNYELISNELKARLLQEGWVDKVKDLTKSEMNINESTNFTQILSTVEPKALEMVSDSTRETVLKQIREFLEEIVDTQ chain 4: MRSGDAEIKGIKPKVIEEYSLSQGSGPSNDSWKSLMSSAKDTPLQYDHMNRESLKKYFNPNAQLIEDPLDKPIQYRVCEKCGKPLALTAIVDHLEN"
